Test results taken from US20060094649A1 (published 2006).
Each block holds one binder with its values, some of them ahead of it. Non-standard residues stand in square brackets, D forms with d. No end group written: not given here. Abu = CC[C@H](N)C(=O)O

Tests used:
HLA-A*3101 = HLA-A*3101 (human); assay: competition vs 125I probe, purified HLA
HLA-B*1801 = HLA-B*1801 (human); assay: competition with labeled probe peptide, purified HLA class I
HLA-A*3301 = HLA-A*3301 (human); assay: competition vs 125I probe, purified HLA
HLA-B*4403 [1] = target: HLA-B*4403 (human); assay: competitive inhibition of labeled probe peptide, purified HLA
HLA-B*4501 = HLA-B*4501 (human); assay: competition vs labelled reference peptide on HLA class I
HLA-B*4403 [2] = target: HLA-B*4403 (human); assay: competition with labeled probe peptide, purified HLA class I
HLA-B*4403 [3] = target: HLA-B*4403 (human); assay: competition vs labelled reference peptide on HLA class I

IC50 (HLA-A*3101): 0.72 µM
Binder: SS[Abu]MGGMNRK [p53.240.B3K10]

IC50 (HLA-B*1801): 5.4 nM
Binder: LESEFQAAL [LESEFQAAL (MAGE3, position printed 301)]

IC50 (HLA-A*3301): 85 nM
Binder: [Abu]VYSPALNR [p53.124.B1V2R9]

IC50 (HLA-B*4403 [1]): 7.6 nM
Binder: SEYLQLVFGIEVV [MAGE2 155 SEYLQLVFGIEVV]

IC50 (HLA-A*3101): 9 µM
Binder: SV[Abu]MGGMNK [p53.240.V2B3K9]

IC50 (HLA-B*4501): 401 nM
Binder: EEGACQPCPI [EEGACQPCPI (Her2/neu position 619, 10-mer)]

IC50 (HLA-B*4403 [2]): 950 nM
Binder: PEEGLEARGEA [PEEGLEARGEA (MAGE2, position 12)]

IC50 (HLA-B*4403 [3]): 2.7 nM
Binder: GEGLACHQLCA [GEGLACHQLCA (Her2/neu position 506, 11-mer)]
